Patent US12331334B2

Target: human C3 FRET peptide

Activity (nM EDANS/min/µL sample), expi293 supernatant on 40 µM human C3 FRET peptide (nM EDANS/min/µL sample)	Substance
0	WT uPA with C122S-Fc (No PP) (Fc fusion)
0.1	WT uPA with C122S - HSA (No PP) (enzyme)
